Reference: PMC11574045, “A cofactor-induced repressive type of transcription factor condensation can be induced by synthetic peptides to suppress tumorigenesis” (The EMBO Journal, 2024)

B1: ZFAT (protein, UniProt Q9P243 1-1243, looked up)
Zinc finger protein ZFAT: METRAAENTAIFMCKCCNLFSPNQSELLSHVSEKHMEEGVNVDEIIIPLRPLSTPEPPNSSKTGDEFLVMKRKRGRPKGSTKKSSTEEELAENIVSPTEDSPLAPEEGNSLPPSSLECSKCCRKFSNTRQLRKHICIIVLNLGEEEGEAGNESDLELEKKCKEDDREKASKRPRSQKTEKVQKISGKEARQLSGAKKPIISVVLTAHEAIPGATKIVPVEAGPPETGATNSETTSADLVPRRGYQEYAIQQTPYEQPMKSSRLGPTQLKIFTCEYCNKVFKFKHSLQAHLRIHTNEKPYKCPQCSYASAIKANLNVHLRKHTGEKFACDYCSFTCLSKGHLKVHIERVHKKIKQHCRFCKKKYSDVKNLIKHIRDAHDPQDKKVKEALDELCLMTREGKRQLLYDCHICERKFKNELDRDRHMLVHGDKWPFACELCGHGATKYQALELHVRKHPFVYVCAVCRKKFVSSIRLRTHIKEVHGAAQEALVFTSSINQSFCLLEPGGDIQQEALGDQLQLVEEEFALQGVNALKEEACPGDTQLEEGRKEPEAPGEMPAPAVHLASPQAESTALPPCELETTVVSSSDLHSQEVVSDDFLLKNDTSSAEAHAAPEKPPDMQHRSSVQTQGEVITLLLSKAQSAGSDQESHGAQSPLGEGQNMAVLSAGDPDPSRCLRSNPAEASDLLPPVAGGGDTITHQPDSCKAAPEHRSGITAFMKVLNSLQKKQMNTSLCERIRKVYGDLECEYCGKLFWYQVHFDMHVRTHTREHLYYCSQCHYSSITKNCLKRHVIQKHSNILLKCPTDGCDYSTPDKYKLQAHLKVHTALDKRSYSCPVCEKSFSEDRLIKSHIKTNHPEVSMSTISEVLGRRVQLKGLIGKRAMKCPYCDFYFMKNGSDLQRHIWAHEGVKPFKCSLCEYATRSKSNLKAHMNRHSTEKTHLCDMCGKKFKSKGTLKSHKLLHTADGKQFKCTVCDYTAAQKPQLLRHMEQHVSFKPFRCAHCHYSCNISGSLKRHYNRKHPNEEYANVGTGELAAEVLIQQGGLKCPVCSFVYGTKWEFNRHLKNKHGLKVVEIDGDPKWETATEAPEEPSTQYLHITEAEEDVQGTQAAVAALQDLRYTSESGDRLDPTAVNILQQIIELGAETHDATALASVVAMAPGTVTVVKQVTEEEPSSNHTVMIQETVQQASVELAEQHHLVVSSDDVEGIETVTVYTQGGEASEFIVYVQEAMQPVEEQAVEQPAQEL
B2: C1QBP (protein, UniProt Q07021 74-282, looked up)
Complement component 1 Q …: LHTDGDKAFVDFLSDEIKEERKIQKHKTLPKMSGGWELELNGTEAKLVRKVAGEKITVTFNINNSIPPTFDGEEEPSQGQKVEEQEPELTSTPNFVVEVIKNDDGKKALVLDCHYPEDEVGQEDEAESDIFSIREVSFQSTGESEWKDTNYTLNTDSLDWALYDHLMDFLADRGVDNTFADELVELSTALEHQEYITFLEDLKSFVKSQ
B3: ZBTB48 (protein, UniProt P10074 1-688, looked up)
Zinc finger and BTB …: MDGSFVQHSVRVLQELNKQREKGQYCDATLDVGGLVFKAHWSVLACCSHFFQSLYGDGSGGSVVLPAGFAEIFGLLLDFFYTGHLALTSGNRDQVLLAARELRVPEAVELCQSFKPKTSVGQAAGGQSGLGPPASQNVNSHVKEPAGLEEEEVSRTLGLVPRDQEPRGSHSPQRPQLHSPAQSEGPSSLCGKLKQALKPCPLEDKKPEDCKVPPRPLEAEGAQLQGGSNEWEVVVQVEDDGDGDYMSEPEAVLTRRKSNVIRKPCAAEPALSAGSLAAEPAENRKGTAVPVECPTCHKKFLSKYYLKVHNRKHTGEKPFECPKCGKCYFRKENLLEHEARNCMNRSEQVFTCSVCQETFRRRMELRVHMVSHTGEMPYKCSSCSQQFMQKKDLQSHMIKLHGAPKPHACPTCAKCFLSRTELQLHEAFKHRGEKLFVCEECGHRASSRNGLQMHIKAKHRNERPHVCEFCSHAFTQKANLNMHLRTHTGEKPFQCHLCGKTFRTQASLDKHNRTHTGERPFSCEFCEQRFTEKGPLLRHVASRHQEGRPHFCQICGKTFKAVEQLRVHVRRHKGVRKFECTECGYKFTRQAHLRRHMEIHDRVENYNPRQRKLRNLIIEDEKMVVVALQPPAELEVGSAEVIVESLAQGGLASQLPGQRLCAEESFTGPGVLEPSLIITAAVPEDCDT
B4: ZBTB6 (protein, UniProt Q15916 1-424, looked up)
Zinc finger and BTB …: MAAESDVLHFQFEQQGDVVLQKMNLLRQQNLFCDVSIYINDTEFQGHKVILAACSTFMRDQFLLTQSKHVRITILQSAEVGRKLLLSCYTGALEVKRKELLKYLTAASYLQMVHIVEKCTEALSKYLEIDLSMKNNNQHTDLCQSSDPDVKNEDENSDKDCEIIEISEDSPVNIDFHVKEEESNALQSTVESLTSERKEMKSPELSTVDIGFKDNEICILHVESISTAGVENGQFSQPCTSSKASMYFSETQHSLINSTVESRVAEVPGNQDQGLFCENTEGSYGTVSEIQNLEEGYSLRHQCPRCPRGFLHVENYLRHLKMHKLFLCLQCGKTFTQKKNLNRHIRGHMGIRPFQCTVCLKTFTAKSTLQDHLNIHSGDRPYKCHCCDMDFKHKSALKKHLTSVHGRSSGEKLSRPDLKRQSLL
B5: ZDHHC18 (protein, UniProt Q9NUE0 1-388, looked up)
Palmitoyltransferase ZDHHC18: MKDCEYQQISPGAAPLPASPGARRPGPAASPTPGPGPAPPAAPAPPRWSSSGSGSGSGSGSLGRRPRRKWEVFPGRNRFYCGGRLMLAGHGGVFALTLLLILTTTGLFFVFDCPYLARKLTLAIPIIAAILFFFVMSCLLQTSFTDPGILPRATVCEAAALEKQIDNTGSSTYRPPPRTREVLINGQMVKLKYCFTCKMFRPPRTSHCSVCDNCVERFDHHCPWVGNCVGRRNYRFFYAFILSLSFLTAFIFACVVTHLTLRAQGSNFLSTLKETPASVLELVICFFSIWSILGLSGFHTYLVASNLTTNEDIKGSWSSKRGGEASVNPYSHKSIITNCCAVLCGPLPPSLIDRRGFVQSDTVLPSPIRSDEPACRAKPDASMVGGHP
B6: ZFP144 (protein, UniProt P35227 1-344, looked up)
Polycomb group RING finger …: MHRTTRIKITELNPHLMCALCGGYFIDATTIVECLHSFCKTCIVRYLETNKYCPMCDVQVHKTRPLLSIRSDKTLQDIVYKLVPGLFKDEMKRRRDFYAAYPLTEVPNGSNEDRGEVLEQEKGALSDDEIVSLSIEFYEGARDRDEKKGPLENGDGDKEKTGVRFLRCPAAMTVMHLAKFLRNKMDVPSKYKVEVLYEDEPLKEYYTLMDIAYIYPWRRNGPLPLKYRVQPACKRLTLATVPTPSEGTNTSGASECESVSDKAPSPATLPATSSSLPSPATPSHGSPSSHGPPATHPTSPTPPSTASGATTAANGGSLNCLQTPSSTSRGRKMTVNGAPVPPLT
B7: ZBTB5 (protein, UniProt O15062 1-677, looked up)
Zinc finger and BTB …: MDFPGHFEQIFQQLNYQRLHGQLCDCVIVVGNRHFKAHRSVLAACSTHFRALFSVAEGDQTMNMIQLDSEVVTAEAFAALIDMMYTSTLMLGESNVMDVLLAASHLHLNSVVKACKHYLTTRTLPMSPPSERVQEQSARMQRSFMLQQLGLSIVSSALNSSQNGEEQPAPMSSSMRSNLDQRTPFPMRRLHKRKQSAEERARQRLRPSIDESAISDVTPENGPSGVHSREEFFSPDSLKIVDNPKADGMTDNQEDSAIMFDQSFGTQEDAQVPSQSDNSAGNMAQLSMASRATQVETSFDQEAAPEKSSFQCENPEVGLGEKEHMRVVVKSEPLSSPEPQDEVSDVTSQAEGSESVEVEGVVVSAEKIDLSPESSDRSFSDPQSSTDRVGDIHILEVTNNLEHKSTFSISNFLNKSRGNNFTANQNNDDNIPNTTSDCRLESEAPYLLSPEAGPAGGPSSAPGSHVENPFSEPADSHFVRPMQEVMGLPCVQTSGYQGGEQFGMDFSRSGLGLHSSFSRVMIGSPRGGASNFPYYRRIAPKMPVVTSVRSSQIPENSTSSQLMMNGATSSFENGHPSQPGPPQLTRASADVLSKCKKALSEHNVLVVEGARKYACKICCKTFLTLTDCKKHIRVHTGEKPYACLKCGKRFSQSSHLYKHSKTTCLRWQSSNLPSTLL
B8: ZEB2 (protein, UniProt O60315 1-1214, looked up)
Zinc finger E-box-binding …: MKQPIMADGPRCKRRKQANPRRKNVVNYDNVVDTGSETDEEDKLHIAEDDGIANPLDQETSPASVPNHESSPHVSQALLPREEEEDEIREGGVEHPWHNNEILQASVDGPEEMKEDYDTMGPEATIQTAINNGTVKNANCTSDFEEYFAKRKLEERDGHAVSIEEYLQRSDTAIIYPEAPEELSRLGTPEANGQEENDLPPGTPDAFAQLLTCPYCDRGYKRLTSLKEHIKYRHEKNEENFSCPLCSYTFAYRTQLERHMVTHKPGTDQHQMLTQGAGNRKFKCTECGKAFKYKHHLKEHLRIHSGEKPYECPNCKKRFSHSGSYSSHISSKKCIGLISVNGRMRNNIKTGSSPNSVSSSPTNSAITQLRNKLENGKPLSMSEQTGLLKIKTEPLDFNDYKVLMATHGFSGTSPFMNGGLGATSPLGVHPSAQSPMQHLGVGMEAPLLGFPTMNSNLSEVQKVLQIVDNTVSRQKMDCKAEEISKLKGYHMKDPCSQPEEQGVTSPNIPPVGLPVVSHNGATKSIIDYTLEKVNEAKACLQSLTTDSRRQISNIKKEKLRTLIDLVTDDKMIENHNISTPFSCQFCKESFPGPIPLHQHERYLCKMNEEIKAVLQPHENIVPNKAGVFVDNKALLLSSVLSEKGMTSPINPYKDHMSVLKAYYAMNMEPNSDELLKISIAVGLPQEFVKEWFEQRKVYQYSNSRSPSLERSSKPLAPNSNPPTKDSLLPRSPVKPMDSITSPSIAELHNSVTNCDPPLRLTKPSHFTNIKPVEKLDHSRSNTPSPLNLSSTSSKNSHSSSYTPNSFSSEELQAEPLDLSLPKQMKEPKSIIATKNKTKASSISLDHNSVSSSSENSDEPLNLTFIKKEFSNSNNLDNKSTNPVFSMNPFSAKPLYTALPPQSAFPPATFMPPVQTSIPGLRPYPGLDQMSFLPHMAYTYPTGAATFADMQQRRKYQRKQGFQGELLDGAQDYMSGLDDMTDSDSCLSRKKIKKTESGMYACDLCDKTFQKSSSLLRHKYEHTGKRPHQCQICKKAFKHKHHLIEHSRLHSGEKPYQCDKCGKRFSHSGSYSQHMNHRYSYCKREAEEREAAEREAREKGHLEPTELLMNRAYLQSITPQGYSDSEERESMPRDGESEKEHEKEGEDGYGKLGRQDGDEEFEEEEEESENKSMDTDPETIRDEEETGDHSMDDSSEDGKMETKSDHEEDNMEDGM

These molecules were tested on HEK293FT cells transfected with TF library (assay: Screening of TF condensates based on fluorescent puncta). Conditions: Figure 1B numerical data; TF library screen, one value per transcriptional factor.
Type: cell-based
Summary of the method: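 HEK293FT, PEI transfection of TF library, 60 h; ±glucose 12 h; 4% PFA fix, 0.05% Triton X-100 permeabilization, 5% BSA block; anti-Flag/anti-GAL4 overnight at 4 °C, Alexa 488 secondary 1 h; high-content imaging, 50 fields/well.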
For B1, the “Z score of condensed fraction” value was -0.7456. For B2, the “Z score of condensed fraction” value was 2.537. B3 was tested, and the “Z score of condensed fraction” value was 0.7506. In the case of B4, the “Z score of condensed fraction” value is reported as -0.2886. For B5, the “Z score of condensed fraction” value was -0.2463. For B6, the “Z score of condensed fraction” value was 0.0768. For B7, the “Z score of condensed fraction” value was -0.7904. B8 was tested, and the “Z score of condensed fraction” value was -0.2398.
